# Measured values from IntAct's records for PubMed 19468302.
# B1: Rac GTPase-activating protein 1 (Homo sapiens), Q9H0H5 (parent)
# chain: MDTMMLNVRNLFEQLVRRVEILSEGNEVQFIQLAKDFEDFRKKWQRTDHELGKYKDLLMKAETERSALDVKLKHARNQVDVEIKRRQRAEADCEKLERQIQLIREMLMCDTSGSIQLSEEQKSALAFLNRGQPSSSNAGNKRLSTIDESGSILSDISFDKTDESLDWDSSLVKTFKLKKREKRRSTSRQFVDGPPGPVKKTRSIGSAVDQGNESIVAKTTVTVPNDGGPIEAVSTIETVPYWTRSRRKTGTLQPWNSDSTLNSRQLEPRTETDSVGTPQSNGGMRLHDFVSKTVIKPESCVPCGKRIKFGKLSLKCRDCRVVSHPECRDRCPLPCIPTLIGTPVKIGEGMLADFVSQTSPMIPSIVVHCVNEIEQRGLTETGLYRISGCDRTVKELKEKFLRVKTVPLLSKVDDIHAICSLLKDFLRNLKEPLLTFRLNRAFMEAAEITDEDNSIAAMYQAVGELPQANRDTLAFLMIHLQRVAQSPHTKMDVANLAKVFGPTIVAHAVPNPDPVTMLQDIKRQPKVVERLLSLPLEYWSQFMMVEQENIDPLHVIENSNAFSTPQTPDIKVSLLGPVTTPEHQLLKTPSSSSLSQRVRSTLTKNTPRFGSKSKSATNLGRQGNFFASPMLK
# B2: Rac GTPase-activating protein 1 (Homo sapiens), Q9H0H5 (parent)
# chain: B1 chain
# partner: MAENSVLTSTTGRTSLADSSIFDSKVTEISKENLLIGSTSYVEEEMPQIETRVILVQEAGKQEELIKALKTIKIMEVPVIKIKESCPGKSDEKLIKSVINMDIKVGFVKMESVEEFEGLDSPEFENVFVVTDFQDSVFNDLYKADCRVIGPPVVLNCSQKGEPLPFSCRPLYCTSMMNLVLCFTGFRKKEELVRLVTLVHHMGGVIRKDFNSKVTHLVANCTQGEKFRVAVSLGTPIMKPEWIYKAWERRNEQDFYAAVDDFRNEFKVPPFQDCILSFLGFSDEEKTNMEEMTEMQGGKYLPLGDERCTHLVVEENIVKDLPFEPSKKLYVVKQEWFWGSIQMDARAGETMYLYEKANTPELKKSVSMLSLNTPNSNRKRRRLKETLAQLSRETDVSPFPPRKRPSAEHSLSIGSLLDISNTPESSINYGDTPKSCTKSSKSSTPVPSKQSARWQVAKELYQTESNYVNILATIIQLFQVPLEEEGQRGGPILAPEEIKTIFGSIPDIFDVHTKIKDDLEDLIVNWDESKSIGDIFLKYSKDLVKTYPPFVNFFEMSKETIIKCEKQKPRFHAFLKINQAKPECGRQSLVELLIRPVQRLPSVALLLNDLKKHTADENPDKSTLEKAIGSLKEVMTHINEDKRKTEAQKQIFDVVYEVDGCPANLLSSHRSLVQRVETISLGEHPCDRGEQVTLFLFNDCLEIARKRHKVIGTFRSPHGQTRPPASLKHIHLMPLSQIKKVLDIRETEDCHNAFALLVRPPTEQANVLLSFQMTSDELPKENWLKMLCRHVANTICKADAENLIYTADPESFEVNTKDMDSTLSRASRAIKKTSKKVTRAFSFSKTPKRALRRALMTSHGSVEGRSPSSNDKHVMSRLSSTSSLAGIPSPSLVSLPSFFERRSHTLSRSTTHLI
# Variants of: B1
# Conditions: with plk1_human PLK1, P53350
# Sequence of plk1_human PLK1, P53350 (P53350 whole entry): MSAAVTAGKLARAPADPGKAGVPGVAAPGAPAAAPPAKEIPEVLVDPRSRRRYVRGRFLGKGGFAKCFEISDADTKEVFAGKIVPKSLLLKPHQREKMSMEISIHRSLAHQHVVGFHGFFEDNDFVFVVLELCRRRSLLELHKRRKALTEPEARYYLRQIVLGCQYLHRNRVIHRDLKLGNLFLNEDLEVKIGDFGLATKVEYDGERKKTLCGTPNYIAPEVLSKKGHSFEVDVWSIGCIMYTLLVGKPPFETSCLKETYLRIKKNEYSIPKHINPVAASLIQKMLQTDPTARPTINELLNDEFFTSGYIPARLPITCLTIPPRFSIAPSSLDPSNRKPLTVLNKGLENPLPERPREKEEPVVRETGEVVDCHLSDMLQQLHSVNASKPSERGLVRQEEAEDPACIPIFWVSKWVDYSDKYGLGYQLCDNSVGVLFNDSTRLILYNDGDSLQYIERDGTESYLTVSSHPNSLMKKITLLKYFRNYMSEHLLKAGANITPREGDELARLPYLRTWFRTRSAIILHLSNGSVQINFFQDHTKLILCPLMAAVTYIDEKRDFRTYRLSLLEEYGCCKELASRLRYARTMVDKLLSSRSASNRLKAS
row,Variant,effect of a mutation on the interaction
1,S157A;S164A;S170A;S214A;T260A,decreasing interaction strength

# Variants of: B2
# Conditions: with ect2_human ECT2, Q9H8V3
row,Variant,effect of a mutation on the interaction
1,S157A,decreasing interaction
2,S157A;S164A;S170A,disrupting interaction
3,S157A;S164A;S170A;S214A;T260A,decreasing interaction strength
